From patent publication US20160031967A1 (Affibody, published 2016)

Experiments:
[1] = molecular target: T1, human FcRn (Biorbyt, cat. no. orb84388) (human, UniProt P55899 24-297; P61769 21-119, limits assumed); assay: ELISA titration of biotinylated human FcRn, pH 6.0
T1 construct: Bought protein; Biotinylated in AlphaLISA and ELISA; also called biotinylated human FcRn
Protocol: (§1) ELISA KD analysis of FcRn binding Z variants: A selection of FcRn binders was subjected to an analysis of the response against a dilution series of biotinylated human FcRn using ELISA at both pH 6.0 and pH 7.4 as described above. […] As a background control, all Z variants were also assayed with no target protein added. […] Data were analyzed using GraphPad Prism 5 and non-linear regression and KD values (the half maximal effective concentration) were calculated.
(§2) Periplasm samples were incubated with a serial dilution of biotinylated human FcRn.

[2] = molecular target: T1, human FcRn (Biorbyt, cat. no. orb84388); assay: ELISA titration of biotinylated human FcRn, pH 7.4
Protocol: as §1, §2

T1 sequence (P55899 24-297 limits assumed, chain 1 of 2): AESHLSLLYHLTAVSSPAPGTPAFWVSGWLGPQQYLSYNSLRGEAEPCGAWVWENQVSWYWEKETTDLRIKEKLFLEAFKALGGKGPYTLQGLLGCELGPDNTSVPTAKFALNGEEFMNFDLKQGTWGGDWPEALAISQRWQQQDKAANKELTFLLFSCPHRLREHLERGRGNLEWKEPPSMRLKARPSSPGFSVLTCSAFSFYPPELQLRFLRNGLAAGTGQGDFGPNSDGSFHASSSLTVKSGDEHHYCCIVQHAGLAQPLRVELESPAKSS
T1 sequence (P61769 21-119 limits assumed, chain 2 of 2): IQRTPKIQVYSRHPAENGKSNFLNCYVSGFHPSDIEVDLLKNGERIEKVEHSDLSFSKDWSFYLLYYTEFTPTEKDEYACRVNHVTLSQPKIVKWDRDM

Binder | Kd [1] [nM] | Kd [2] [nM]
Z13586-ABD fusion (designed binder, domain: GA3; periplasmic Z-ABD fusion) AQHDEALEVDAKYAKELKDAGHEIRWLPNLTFDQRVAFIHKLRDDPSQSSELLSEAKKLNDSQAPKVDYVLAEAKVLANRELDKYGVSDYYKNLINNAKTVEGVKALIDEILAALPYVPG | 1.2 | 2.3
Z13783-ABD fusion (designed binder, domain: GA3; periplasmic Z-ABD fusion) AQHDEALEVDAKYAKEIEQAGHEIRWLPNLTFDQRVAFIHKLRDDPSQSSELLSEAKKLNDSQAPKVDYVLAEAKVLANRELDKYGVSDYYKNLINNAKTVEGVKALIDEILAALPYVPG | 1.4 | 2.2
